For assay [1], the target named is T1, human recombinant CD3ε/γ heterodimer (human, UniProt P07766 23-126; P09693 23-116).
T1 chain 1: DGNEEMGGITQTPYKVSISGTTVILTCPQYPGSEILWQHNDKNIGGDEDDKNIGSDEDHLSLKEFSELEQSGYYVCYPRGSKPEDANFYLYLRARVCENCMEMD
T1 chain 2: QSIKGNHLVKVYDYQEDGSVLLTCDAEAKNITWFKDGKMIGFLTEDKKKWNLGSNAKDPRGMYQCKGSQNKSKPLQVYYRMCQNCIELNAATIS
As to the kind of experiment: SPR. (In general: Surface plasmon resonance follows binding to a sensor surface in real time, without labels.)

Assay [2] concerns the target T2, human recombinant CD3ε/δ heterodimer (human, UniProt P07766 23-126; P04234 22-105, N-linked glycosylations (sites not given)).
T2 chain 1: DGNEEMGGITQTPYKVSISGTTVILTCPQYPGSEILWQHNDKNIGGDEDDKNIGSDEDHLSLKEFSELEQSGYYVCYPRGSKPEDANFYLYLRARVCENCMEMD
T2 chain 2: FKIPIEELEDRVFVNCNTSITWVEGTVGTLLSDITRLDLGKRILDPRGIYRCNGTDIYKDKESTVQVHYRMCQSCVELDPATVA
As to the kind of experiment: SPR.

Assay [3] concerns the target T3, human recombinant CD3ε/δ heterodimer (human, UniProt P07766 23-126; P04234 22-105, N-linked glycosylations (sites not given)).
T3 construct: CD3 epsilon chain, human; CD3 delta chain, human; it is probably made of the extracellular domains with vendor tags (surmise); The vendor's catalogue entry would give them; also called human CD3ε/δ; CD3δ/ε; source: bought: ACROBiosystems, CDD-H52wa-100 μg
As to the kind of experiment: SPR; CD3 heterodimers amine-coupled at pH 4 to CM5 chips (mouse CD3ε/δ 3,900 RU, human CD3ε/δ 9,800 RU, human CD3ε/γ 8,900 RU); gal 4 as analyte, 2-fold dilutions 16 to 0.5 μmol/L, 120 s association, 120 s dissociation; 25°C; 10 mmol/L phosphate pH 7.4, 140 mmol/L NaCl, 0.27 mmol/L KCl, 0.05% Tween 20; Biacore T-200. Particulars: both partners purified.

The Kd is the constant that tells how readily two partners part at equilibrium.

B1: human recombinant galectin 4 (natural protein, UniProt P56470 1-323, looked up)
chain: MAYVPAPGYQPTYNPTLPYYQPIPGGLNVGMSVYIQGVASEHMKRFFVNFVVGQDPGSDVAFHFNPRFDGWDKVVFNTLQGGKWGSEERKRSMPFKKGAAFELVFIVLAEHYKVVVNGNPFYEYGHRLPLQMVTHLQVDGDLQLQSINFIGGQPLRPQGPPMMPPYPGPGHCHQQLNSLPTMEGPPTFNPPVPYFGRLQGGLTARRTIIIKGYVPPTGKSFAINFKVGSSGDIALHINPRMGNGTVVRNSLLNGSWGSEEKKITHNPFGPGQFFDLSIRCGLDRFKVYANGQHLFDFAHRLSAFQRVDTLEIQGDVTLSYVQI
notes: galectin 4 (LGALS4), Homo sapiens, cDNA NM_006149.4 recloned from pcDNA3.1-C-(k)DYK into pET-His1a (NcoI + Acc65I); The Hisx6-TEV tag was removed before use; also called gal 4; hgal 4; source: E. coli Rosetta (DE3), purified (NiNTA, tag removal with TEV protease, second NiNTA run); not shown: His6, N-terminal, cleaved
As to B1, the results for the Kd in assay [1] and in assay [2] were approximately 10 µM and approximately 1 µM, respectively. Further, the “fold affinity against CD3γ/ε” value in assay [3] was 10 fold.

Values taken from article PMC9808371, “Extracellular Galectin 4 Drives Immune Evasion and Promotes T-cell Apoptosis in Pancreatic Cancer” (Cancer Immunology Research, 2022).
